One may read the stoichiometry N as a count of units in the complex or per binding partner.

The text below walks through data of publication doi:10.1101/560391 (bioRxiv, 2019).

Series [1] addresses dCENP-A^C chimera, GFP-LacI fusion (Drosophila) (UniProt Q9V6Q2). In words: LacI/LacO tethering and co-recruitment in cells.
The series “SEC-MALS” concerns the molecule itself. In words: SEC-MALS.
The target of series [2] is (dCENP-A/dH4) dimer (Drosophila), Q9V6Q2. In words: SEC-MALS. As to conditions: remark: other sources report otherwise. On the technique in general: In gel filtration, larger molecules generally elute earlier.

“CAL1-V5 (from UniProt Q9VEN2 1-979) (natural protein)”: in series [1], the CAL1 recruitment relative to WT dCENP-A came out at 60%.

B1: His-dCENP-C(1264-1411) (domain or fragment)
chain: GPVVFSTPLRDEQEEASTKLMQWLRGVGDAPPSASMSDENASVSSANELIFCQVDGIDYAFYNTKEKAMLGYMRFKPYQKRSMKQAKVHPLKLLVQFGEFNVETLAVGEEKEVHSVLRVGDMIEIDRGTRYSIQNAIDKVSVLMCIRS
Consider B1, for which the “stoichiometry N” value in “SEC-MALS” was 2.

B2: recombinant CAL1(1-160), Q9VEN2 1-160 (domain or fragment)
chain: MANAVVDEETLEAMVYERSKAWSSKMADFASLEDGMEIDVAEFDNLFHGEDEDPDLDDVAKEAVEDNVPDEAKLEMGHINATSVTELTLILCANEDNEAKAEIEEILNQTVPVVEEHKRKWREAGLDRILDTFDEKQIEHHVGRWMRRHNSVYLEASPPK
In turn, B2 came in with a stoichiometry N in series [2] of 1.
